Reference: article PMC3279538 (Diabetes, 2010)

Target: endogenous B7-H1 wild type (NOD mouse, from wild-type spleen) (mouse (endogenous in NOD spleen), UniProt Q9EP73 19-290)
Test: SPR

Chain of endogenous B7-H1 wild type (NOD mouse, from wild-type spleen) (Q9EP73 19-290): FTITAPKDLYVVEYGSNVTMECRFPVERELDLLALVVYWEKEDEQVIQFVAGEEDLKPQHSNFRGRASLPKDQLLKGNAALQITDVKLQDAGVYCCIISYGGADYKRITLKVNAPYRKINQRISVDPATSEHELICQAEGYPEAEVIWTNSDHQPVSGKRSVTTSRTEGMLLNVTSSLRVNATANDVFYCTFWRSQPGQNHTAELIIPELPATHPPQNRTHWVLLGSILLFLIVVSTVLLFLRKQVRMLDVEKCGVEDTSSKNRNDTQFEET

B1: PD-1 receptor (receptor, UniProt Q02242 25-169, looked up)
chain: LEVPNGPWRSLTFYPAWLTVSEGANATFTCSLSNWSEDLMLNWNRLSPSNQTEKQAAFCNGLSQPVQDARFQIIQLPNRHDFHMNILDTRRNDSGIYLCGAISLHPKAKIEESPGAELVVTERILETSTRYPSPSPKPEGRFQGM
Kd: 11 nM | koff: 0.0017 s⁻¹
